Source: patent publication US20240182548A1 (AstraZeneca / MedImmune, published 2024)

Target: SARS2 spike protein with C-terminal 19aa deletion, on S protein pseudotyped lentivirus (SARS-CoV-2, UniProt P0DTC2 13-1254)
Experiment: cell-based or functional assay

Row | Binder | Pseudovirus neutralization IC50
1 | 2096 (antibody, V domains shown) VH: QVQLVQSGAEVKKPGASVKVSCKASGYTFGSFDINWVRQATGQGLEWMGRMNSNSGNTAYAQKFQGRVTMTRDTSTNTAYMELSSLRSEDTAMYYCARMRSGWPTHGRPDDFWGRGTLVTVSS VL: QSVLTQAPSASGTPGQRVTISCSGSNSNIGSYTINWYQQLPGTAPKLLIYGNDQRTSGVPDRFSGSKFGTSASLAISGLQSEDENNYYCAVWDDSLNGLVFGGGTKLTVL | 3.3 ng/mL
2 | 2094 (antibody, V domains shown) VH: EVQLVESGGGVVRPGGSLRLSCAASGFIFDDYDMTWVRQAPGKGLEWVSGINWNGGSTGYADSVKGRFTISRDNAKNSLYLQMNSLRAEDTALYHCAVIMSPIPRYSGYDWAGDAFDIWGQGTMVTVSS VL: SSELTQDPAVSVALGQTVRITCQGDSLRSYYASWYQQKPGQVPILVIYDKNNRPSGIPDRFSGSSSGNTASLTITGAQAEDEADYYCNSRDSSGNAVVFGGGTKLTVL | 3 ng/mL
